We go through 21 sequences from the supplement of paper PMC9170038.

This data set relates to MS2 coat protein. Kind of data set: apparent KD of MS2 coat protein; designed switch direction (-1 OFF switch, 1 ON switch): 1; higher = weaker reporter binding. The gist of the method: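 Apparent KD, taken as the median over clusters for each design, was obtained by curve-fitting normalised cluster fluorescence. Designed RNA switches had been transcribed on Illumina chips by stalled E. coli RNA polymerase and titrated with SNAP-549-labelled MS2 coat protein, doubling from 0.7 or 1.5 nM to 3 µM.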

[1] abbreviates: Eterna round: R95, input ligand: FMN 200 uM.
[2] abbreviates: Eterna round: R95, input ligand: microRNA oligo, concentration not stated.
Setting [3] is: Eterna round: R95, input ligand: none.
[4] abbreviates: input ligand: microRNA oligo, concentration not stated.

On to “CGUCCGGCCUGAGCUGGACGGAUGCAUGUACAUGAGGAUCACCCAUGUUCAUGUGCAGGCUUUUUGCUCGUCUUGUG [salish99_mir208a_modof_jandersonlee_002] (puzzle: Sensor for hsa-mir-208a)”, for which the “apparent KD of MS2 coat protein” value is, setting by setting: under setting [1], 20.1 nM; under setting [2], 9.62 nM; under setting [3], 18.1 nM.

“GCAGGACGGUAAAACAUCUCACAUGAGGAUCACCCAUGUCGUGAGGAUAUGGAUCCUAAUUGGAUCCAGAAGGCACGGUCCUGC [Fiskers NG3ss - 29] (Eterna round: R96, puzzle: Same State NG 3)”: the “apparent KD of MS2 coat protein” value by setting is: (input ligand: FMN 200 uM) 18.4 nM; under setting [4], 14 nM; (input ligand: none) 13.6 nM.

With “UUGUUUCGUCAUUAACAUGAGGAUCACCCAUGUAUCGUCUCAAAGGAUAUAUAUGCUUGUUUGCUAUAGAAGGUUGAUUGUUGU [JR_SSNG3_Sub093] (Eterna round: R96, puzzle: Same State NG 3)”, the “apparent KD of MS2 coat protein” value under setting [4] was found to be 91.6 nM.

Consider “CACAUGAGGAUCACCCAUGUCAGACAAAGGAGCAUGACGCUACAGGAUAUGUGAGCGACUAACGAAUAGAAGGGUAGCCAUCAC [Eternabot solution 27] (Eterna round: R96, puzzle: Same State NG 3)”, for which the “apparent KD of MS2 coat protein” value reads like this: (input ligand: FMN 200 uM) 27.5 nM; under setting [4], 20.8 nM; (input ligand: none) 29.3 nM.

Take “AACAAGUUUUUGCUCGCUUAUAAGCAUGUACAUGAGGAUCACCCAUGUCAUGUACAAAGUCCAGCCUGAGCUGGACA [Reversing mir to lane 1] (puzzle: Sensor for hsa-mir-208a)”: the “apparent KD of MS2 coat protein” value by setting is: under setting [1], 24.5 nM; under setting [2], 15.5 nM; under setting [3], 25.4 nM.

Turning to “UCUUGGUUUUUGCUCGUUUUUUGUGUUGAACAUGAGGAUCACCCAUGUAUUGUACGGUCCGGUUUGGUAGUGGUCCG [JMF 16] (puzzle: Sensor for hsa-mir-208a)”, the “apparent KD of MS2 coat protein” value by setting is: under setting [1], 41 nM; under setting [2], 29.4 nM; under setting [3], 53.6 nM.

For “UUGAAGAAUUAAGGAUAUCGAGUCGUCAGAUUAUACAUGAGGAUCACCCAUGUGGGUUGCGGUAUCGAGAAGGUAAAUUACAAG [JL JR Sub099 mod 5] (Eterna round: R96, puzzle: Same State NG 2)”, the “apparent KD of MS2 coat protein” value (input ligand: FMN 200 uM) was found to be 37.5 nM, the “apparent KD of MS2 coat protein” value under setting [4] was 58.4 nM and the “apparent KD of MS2 coat protein” value (input ligand: none) was 60 nM.

For the sequence “GGUCAGACUCACAUGAGGAUCACCCAUGUACCGGAAACGGCACAGGAUAUCUGUCCGAAAAGGUCAGAGAAGGGUGUACUGACC [Fiskers NG3ss - 53] (Eterna round: R96, puzzle: Same State NG 3)”, the “apparent KD of MS2 coat protein” value amounted to 277 nM (input ligand: FMN 200 uM), 22.9 nM under setting [4] and 82 nM (input ligand: none).

As to “UGCCUGAGUCGAGGAUAUUAUGGAUCCUUUAAUACAUGAGGAUCACCCAUGUAAUUAAUUAUACAUGAGAAGGUGACUCAGGCU [SSNG2/11-B3] (Eterna round: R96, puzzle: Same State NG 2)”, the “apparent KD of MS2 coat protein” value (input ligand: FMN 200 uM) was determined as 24.3 nM, the “apparent KD of MS2 coat protein” value under setting [4] was 194 nM and the “apparent KD of MS2 coat protein” value (input ligand: none) worked out at 253 nM.

On to “AAAAGAAACACAGGAUAUACCGCACUUAACGCGGUAGAAGGGUGGGACAUGAGGAUCACCCAUGUGGUCUGGGCGCCAGACCGC [Esratean] (Eterna round: R96, puzzle: Same State NG 1)”, for which the “apparent KD of MS2 coat protein” value reads like this: (input ligand: FMN 200 uM) 29.1 nM; under setting [4], 23.3 nM; (input ligand: none) 22 nM.

On to “GGCGGAUCCACAUGAGGAUCACCCAUGUAGCGGAGACGCAAUGAGGAUAUCGAUGGGUUUCCCGUCGAGAAGGCAUAAACCGCC [JL SSNG3 3.93 mod 2] (Eterna round: R96, puzzle: Same State NG 3)”, for which the “apparent KD of MS2 coat protein” value (input ligand: FMN 200 uM) is 17.8 nM, the “apparent KD of MS2 coat protein” value under setting [4] was 14.9 nM and the “apparent KD of MS2 coat protein” value (input ligand: none) is 16 nM.

For the sequence “GCUCGAUGUGCUGUCUACAUGAGGAUCACCCAUGUAGAUGCGGAGGAUAUCUACGUGCUUUAUGUAGAGAAGGUCGUAUCGAGC [SameState NG3 #84] (Eterna round: R96, puzzle: Same State NG 3)”, the “apparent KD of MS2 coat protein” value by setting is: (input ligand: FMN 200 uM) 52.5 nM; under setting [4], 50.2 nM; (input ligand: none) 90.4 nM.

Turning to “GCUACCAUAGAAGCCAACAUGAGGAUCACCCAUGUAUGUUGGUAGGAUAUCGAUUGCAAAGCGAUCGAGAAGGGCUAAGGUAGC [Mat - Same State NG 3 - JL Mod - D83] (Eterna round: R96, puzzle: Same State NG 3)”, the “apparent KD of MS2 coat protein” value was determined as 164 nM (input ligand: FMN 200 uM), 130 nM under setting [4] and 139 nM (input ligand: none).

For the sequence “GUGGUCAGACAUGAGGAUCACCCAUGUGGAAUAAAUAAGGAGAAGGAUAUUCAAUAUAGGAUAUAGAAGAAGGUCUGGUUGGUG (Eterna round: R96, puzzle: Same State NG 3)”, the “apparent KD of MS2 coat protein” value under setting [4] came to 63.7 nM.

“AAAGCACAUGAGGAUCACCCAUGUGGAAAUAACACAGGAUAUCCGGCCGAAACUAAGGUGGGAGAAGGGUGACCUA [Aeriste] (puzzle: Same State 1)”: the “apparent KD of MS2 coat protein” value is, setting by setting: under setting [1], 191 nM; under setting [2], 40.2 nM; under setting [3], 73.5 nM.

As to “UAACAGUACAAUUUAGAUCUACAUGAGGAUCACCCAUGUACUGAGGAUAUCAGCUCGAAUAGAGCUGAGAAGGCAGAAGAACUA [SSNG3/11-A1] (Eterna round: R96, puzzle: Same State NG 3)”, the “apparent KD of MS2 coat protein” value amounted to 35.8 nM (input ligand: FMN 200 uM), 127 nM under setting [4] and 203 nM (input ligand: none).

Regarding “GGAGAGAGAGCACAGGAUAUGAGAGGAGAGACAUGAGGAUCACCCAUGUAAGAGAGAGAGGAGAGUUAGAAGGGUGAGAGAGAGG [Altered State 2-20 - Jieux - Same State 2] (puzzle: Same State 2)”, the “apparent KD of MS2 coat protein” value amounted to 54.7 nM under setting [1], 43 nM under setting [2] and 102 nM under setting [3].

As for “UGUUGUAUUACAGGAUAUCUAUUAUUUAUAUUUAGAGAAGGGUAUUCACAUGAGGAUCACCCAUGUAUAUACGAGGAAGUUGUG [JMF's solution 19] (Eterna round: R96, puzzle: Same State NG 1)”, under setting [4], the “apparent KD of MS2 coat protein” value is 36.4 nM.

“UUGCAGUCAGGUGAGGAUAUCAUGAGUUUAACAUGAGGAUCACCCAUGUGCUGCCUUGCAGCAUAUGAGAAGGCACCUGGCUGCU [JL-ss2-3.03 Brourd Mod] (puzzle: Same State 2)”: the “apparent KD of MS2 coat protein” value is, setting by setting: under setting [1], 132 nM; under setting [2], 295 nM; under setting [3], 535 nM.

In the case of “ACGCCUAAACGGCGAAAACGACAUGAGGAUCACCCAUGUACACAGGAUAUCAGCCUGCAACAGGCUGAGAAGGGUGAACCUAAA [Atatmadiar] (Eterna round: R96, puzzle: Same State NG 3)”, the “apparent KD of MS2 coat protein” value was 711 nM (input ligand: FMN 200 uM), 35.5 nM under setting [4] and 155 nM (input ligand: none).

For the sequence “GAGGGAUGAGCGUAGGAUAUAGGAGAAGUGACAUGAGGAUCACCCAUGUAGGAGGAGGGAUGAGACUAGAAGGACGAGGUAGGAG [JR_SS2_Sub061] (puzzle: Same State 2)”, the “apparent KD of MS2 coat protein” value runs as follows: under setting [1], 37.5 nM; under setting [2], 54.7 nM; under setting [3], 67.9 nM.
